These results are taken from IntAct's records for PubMed 29892012.

Sequences and labels used below:
B1: Ras suppressor protein 1 (Homo sapiens), Q15404 (parent)
chain: MSKSLKKLVEESREKNQPEVDMSDRGISNMLDVNGLFTLSHITQLVLSHNKLTMVPPNIAELKNLEVLNFFNNQIEELPTQISSLQKLKHLNLGMNRLNTLPRGFGSLPALEVLDLTYNNLSENSLPGNFFYLTTLRALYLSDNDFEILPPDIGKLTKLQILSLRDNDLISLPKEIGELTQLKELHIQGNRLTVLPPELGNLDLTGQKQVFKAENNPWVTPIADQFQLGVSHVFEYIRSETYKYLYGRHMQANPEPPKKNNDKSKKISRKPLAAKNR
B2: Coiled-coil alpha-helical rod protein 1 (Homo sapiens), Q8TD31 (parent)
chain: MFPPSGSTGLIPPSHFQARPLSTLPRMAPTWLSDIPLVQPPGHQDVSERRLDTQRPQVTMWERDVSSDRQEPGRRGRSWGLEGSQALSQQAEVIVRQLQELRRLEEEVRLLRETSLQQKMRLEAQAMELEALARAEKAGRAEAEGLRAALAGAEVVRKNLEEGSQRELEEVQRLHQEQLSSLTQAHEEALSSLTSKAEGLEKSLSSLETRRAGEAKELAEAQREAELLRKQLSKTQEDLEAQVTLVENLRKYVGEQVPSEVHSQTWELERQKLLETMQHLQEDRDSLHATAELLQVRVQSLTHILALQEEELTRKVQPSDSLEPEFTRKCQSLLNRWREKVFALMVQLKAQELEHSDSVKQLKGQVASLQEKVTSQSQEQAILQRSLQDKAAEVEVERMGAKGLQLELSRAQEARRRWQQQTASAEEQLRLVVNAVSSSQIWLETTMAKVEGAAAQLPSLNNRLSYAVRKVHTIRGLIARKLALAQLRQESCPLPPPVTDVSLELQQLREERNRLDAELQLSARLIQQEVGRAREQGEAERQQLSKVAQQLEQELQQTQESLASLGLQLEVARQGQQESTEEAASLRQELTQQQELYGQALQEKVAEVETRLREQLSDTERRLNEARREHAKAVVSLRQIQRRAAQEKERSQELRRLQEEARKEEGQRLARRLQELERDKNLMLATLQQEGLLSRYKQQRLLTVLPSLLDKKKSVVSSPRPPECSASAPVAAAVPTRESIKGSLSVLLDDLQDLSEAISKEEAVCQGDNLDRCSSSNPQMSS
partner: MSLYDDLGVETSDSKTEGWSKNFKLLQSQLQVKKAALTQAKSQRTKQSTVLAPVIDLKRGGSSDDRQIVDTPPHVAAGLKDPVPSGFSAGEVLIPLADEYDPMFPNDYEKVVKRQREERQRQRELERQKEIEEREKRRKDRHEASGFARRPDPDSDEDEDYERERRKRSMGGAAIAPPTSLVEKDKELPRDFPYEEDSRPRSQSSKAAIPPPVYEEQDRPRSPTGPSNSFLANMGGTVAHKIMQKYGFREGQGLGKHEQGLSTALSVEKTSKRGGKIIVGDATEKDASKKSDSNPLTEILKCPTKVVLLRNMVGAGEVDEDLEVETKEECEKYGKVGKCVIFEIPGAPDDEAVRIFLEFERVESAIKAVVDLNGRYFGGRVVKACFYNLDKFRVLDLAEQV
B3: TBC1 domain family member 22B (Homo sapiens), Q9NU19 (parent)
chain: MAAENSKQFWKRSAKLPGSIQPVYGAQHPPLDPRLTKNFIKERSKVNTVPLKNKKASSFHEFARNTSDAWDIGDDEEEDFSSPSFQTLNSKVALATAAQVLENHSKLRVKPERSQSTTSDVPANYKVIKSSSDAQLSRNSSDTCLRNPLHKQQSLPLRPIIPLVARISDQNASGAPPMTVREKTRLEKFRQLLSSQNTDLDELRKCSWPGVPREVRPITWRLLSGYLPANTERRKLTLQRKREEYFGFIEQYYDSRNEEHHQDTYRQIHIDIPRTNPLIPLFQQPLVQEIFERILFIWAIRHPASGYVQGINDLVTPFFVVFLSEYVEEDVENFDVTNLSQDMLRSIEADSFWCMSKLLDGIQDNYTFAQPGIQKKVKALEELVSRIDEQVHNHFRRYEVEYLQFAFRWMNNLLMRELPLRCTIRLWDTYQSEPEGFSHFHLYVCAAFLIKWRKEILDEEDFQGLLMLLQNLPTIHWGNEEIGLLLAEAYRLKYMFADAPNHYRR
partner: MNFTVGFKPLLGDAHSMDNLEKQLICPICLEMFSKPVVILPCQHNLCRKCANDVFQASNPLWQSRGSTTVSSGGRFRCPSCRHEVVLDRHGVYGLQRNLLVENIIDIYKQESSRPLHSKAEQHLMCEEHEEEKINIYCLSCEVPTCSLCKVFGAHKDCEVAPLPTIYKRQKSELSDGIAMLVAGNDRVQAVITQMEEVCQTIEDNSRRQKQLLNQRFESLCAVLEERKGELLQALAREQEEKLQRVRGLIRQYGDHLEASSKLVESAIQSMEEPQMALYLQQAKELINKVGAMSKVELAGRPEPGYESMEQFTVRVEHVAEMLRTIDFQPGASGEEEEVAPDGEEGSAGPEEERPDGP
B4: Ligand of Numb protein X 2 (Homo sapiens), Q8N448 (parent)
chain: MGTTSDEMVSVEQTSSSSLNPLCFECGQQHWTRENHLYNYQNEVDDDLVCHICLQPLLQPLDTPCGHTFCYKCLRNFLQEKDFCPLDRKRLHFKLCKKSSILVHKLLDKLLVLCPFSSVCKDVMQRCDLEAHLKNRCPGASHRRVALERRKTSRTQAEIENENGPTLLDPAGTLSPEADCLGTGAVPVERHLTSASLSTWSEEPGLDNPAFEESAGADTTQQPLSLPEGEITTIEIHRSNPYIQLGISIVGGNETPLINIVIQEVYRDGVIARDGRLLAGDQILQVNNYNISNVSHNYARAVLSQPCNTLHLTVLRERRFGNRAHNHSDSNSPREEIFQVALHKRDSGEQLGIKLVRRTDEPGVFILDLLEGGLAAQDGRLSSNDRVLAINGHDLKYGTPELAAQIIQASGERVNLTIARPGKPQPGNTIREAGNHSSSSQHHTPPPYYSRPSSHKDLTQCVTCQEKHITVKKEPHESLGMTVAGGRGSKSGELPIFVTSVPPHGCLARDGRIKRGDVLLNINGIDLTNLSHSEAVAMLKASAASPAVALKALEVQIVEEATQNAEEQPSTFSENEYDASWSPSWVMWLGLPSTLHSCHDIVLRRSYLGSWGFSIVGGYEENHTNQPFFIKTIVLGTPAYYDGRLKCGDMIVAVNGLSTVGMSHSALVPMLKEQRNKVTLTVICWPGSLV

Variants of B1 are the subject of the first test. The settings on record: with lims1_human LIMS1, P48059.
lims1_human LIMS1, P48059, sequence (P48059 whole entry): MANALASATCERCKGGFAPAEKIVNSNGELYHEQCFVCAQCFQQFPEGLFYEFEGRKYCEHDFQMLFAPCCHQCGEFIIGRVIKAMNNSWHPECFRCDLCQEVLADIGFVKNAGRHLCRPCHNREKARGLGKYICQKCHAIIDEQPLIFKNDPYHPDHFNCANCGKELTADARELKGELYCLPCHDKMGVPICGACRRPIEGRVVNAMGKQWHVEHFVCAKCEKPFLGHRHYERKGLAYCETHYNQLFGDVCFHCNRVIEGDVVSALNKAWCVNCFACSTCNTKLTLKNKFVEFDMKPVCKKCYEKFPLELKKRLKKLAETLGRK
Turning to P57L, the “effect of a mutation on the interaction” value was “disrupting interaction strength”.

Variants of B2 are the subject of another test. The following applies: with spf45_human RBM17, Q96I25.
On to W337R, for which the “effect of a mutation on the interaction” value was “disrupting interaction strength”.

Variants of B3 are the subject of another test. The settings on record: with tri54_human TRIM54, Q9BYV2.
With A349T, the “effect of a mutation on the interaction” value is on record as “disrupting interaction strength”.

In another test the parent is B4. The following applies: with at2l2_human PHYKPL.
P669A: the “effect of a mutation on the interaction” value is “with no effect”.

The variants in a further test derive from B4. The settings on record: with ip6k2_human IP6K2, Q9UHH9.
ip6k2_human IP6K2, Q9UHH9, sequence (Q9UHH9 whole entry): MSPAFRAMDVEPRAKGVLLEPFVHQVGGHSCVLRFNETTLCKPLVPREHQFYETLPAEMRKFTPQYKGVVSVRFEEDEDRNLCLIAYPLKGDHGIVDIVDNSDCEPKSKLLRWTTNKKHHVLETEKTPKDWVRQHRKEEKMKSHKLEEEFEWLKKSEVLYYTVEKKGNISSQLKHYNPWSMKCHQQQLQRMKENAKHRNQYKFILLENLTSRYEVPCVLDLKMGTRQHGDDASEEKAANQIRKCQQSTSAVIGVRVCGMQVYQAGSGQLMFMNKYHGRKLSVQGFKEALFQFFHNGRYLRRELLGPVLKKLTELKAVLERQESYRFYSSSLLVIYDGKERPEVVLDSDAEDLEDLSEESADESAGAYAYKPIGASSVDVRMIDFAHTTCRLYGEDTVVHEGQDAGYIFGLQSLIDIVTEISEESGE
On to P669A, for which the “effect of a mutation on the interaction” value is on record as “with no effect”.

Variants of B4 are the subject of a further test. The following applies: with atpb_human ATP5F1B.
P669A: the “effect of a mutation on the interaction” value is reported as “with no effect”.

The variants in another test derive from B4. The settings on record: with optn_human OPTN.
With P669A, the “effect of a mutation on the interaction” value is “with no effect”.

In another test the parent is B4. The following applies: with tbb5_human TUBB.
For P669A, the “effect of a mutation on the interaction” value is “with no effect”.

In a further test the parent is B4. The settings on record: with mk09_human MAPK9, P45984.
As to P669A, the “effect of a mutation on the interaction” value is “with no effect”.

Another test covers variants of B4. The following applies: with ptcd3_human PTCD3, Q96EY7.
Consider P669A, for which the “effect of a mutation on the interaction” value was “with no effect”.

Another test covers variants of B4. The following applies: with lrc8e_human LRRC8E.
P669A: the “effect of a mutation on the interaction” value is “with no effect”.
